From patent US20040001835A1, “Prevention or treatment of cancer using integrin alphavbeta3 antagonists in combination with other agents” (MedImmune, Inc., priority 2002, published 2004) come the findings set out here.

Read-outs that look alike come from different tables or passages of the source.

Assay [1] addresses T1, mouse Integrin αVβ3 (Mus musculus, UniProt O54890).
T1 sequence (O54890 26-787): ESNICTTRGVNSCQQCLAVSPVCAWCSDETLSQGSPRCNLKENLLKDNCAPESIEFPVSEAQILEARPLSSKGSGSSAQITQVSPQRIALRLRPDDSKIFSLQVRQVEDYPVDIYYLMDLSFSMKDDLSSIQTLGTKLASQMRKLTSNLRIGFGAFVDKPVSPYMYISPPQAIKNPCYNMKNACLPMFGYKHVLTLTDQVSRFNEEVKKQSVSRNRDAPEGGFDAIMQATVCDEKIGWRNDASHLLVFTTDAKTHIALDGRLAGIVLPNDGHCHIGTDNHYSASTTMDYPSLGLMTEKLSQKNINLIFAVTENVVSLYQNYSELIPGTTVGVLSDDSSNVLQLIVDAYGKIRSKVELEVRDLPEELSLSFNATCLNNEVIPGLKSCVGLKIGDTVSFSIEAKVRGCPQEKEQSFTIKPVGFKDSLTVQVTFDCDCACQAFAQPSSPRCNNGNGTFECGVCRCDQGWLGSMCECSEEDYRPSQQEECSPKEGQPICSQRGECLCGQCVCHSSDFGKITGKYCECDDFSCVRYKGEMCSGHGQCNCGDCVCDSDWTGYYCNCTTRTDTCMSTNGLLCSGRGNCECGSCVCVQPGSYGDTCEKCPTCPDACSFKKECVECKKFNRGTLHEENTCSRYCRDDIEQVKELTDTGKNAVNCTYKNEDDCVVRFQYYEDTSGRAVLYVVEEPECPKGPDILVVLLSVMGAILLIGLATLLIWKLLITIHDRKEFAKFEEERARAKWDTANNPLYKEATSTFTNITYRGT
T1 sequence (P43406 31-885 partner limits assumed): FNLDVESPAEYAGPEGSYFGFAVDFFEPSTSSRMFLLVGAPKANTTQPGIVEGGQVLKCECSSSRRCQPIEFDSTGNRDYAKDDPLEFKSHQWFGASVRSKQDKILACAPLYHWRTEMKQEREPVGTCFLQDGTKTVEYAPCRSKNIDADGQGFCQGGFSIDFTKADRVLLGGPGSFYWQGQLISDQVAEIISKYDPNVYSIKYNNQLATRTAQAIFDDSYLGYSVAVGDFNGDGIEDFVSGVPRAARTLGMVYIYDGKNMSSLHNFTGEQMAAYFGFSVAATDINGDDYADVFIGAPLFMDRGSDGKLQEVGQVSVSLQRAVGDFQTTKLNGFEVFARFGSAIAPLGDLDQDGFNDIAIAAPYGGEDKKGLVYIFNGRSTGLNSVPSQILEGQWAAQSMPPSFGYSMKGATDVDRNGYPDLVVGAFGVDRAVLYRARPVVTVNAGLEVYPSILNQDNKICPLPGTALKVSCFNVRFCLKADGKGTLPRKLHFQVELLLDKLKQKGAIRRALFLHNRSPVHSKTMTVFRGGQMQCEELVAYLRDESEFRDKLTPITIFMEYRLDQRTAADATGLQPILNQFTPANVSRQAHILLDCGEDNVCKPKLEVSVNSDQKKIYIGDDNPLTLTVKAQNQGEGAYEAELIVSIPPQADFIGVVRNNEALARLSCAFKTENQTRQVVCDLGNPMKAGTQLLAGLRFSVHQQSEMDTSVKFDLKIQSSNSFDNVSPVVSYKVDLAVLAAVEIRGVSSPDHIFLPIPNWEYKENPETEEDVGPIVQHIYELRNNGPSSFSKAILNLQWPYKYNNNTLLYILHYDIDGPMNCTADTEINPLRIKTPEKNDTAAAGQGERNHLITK
T1 sequence (P43406 887-1044 partner limits assumed): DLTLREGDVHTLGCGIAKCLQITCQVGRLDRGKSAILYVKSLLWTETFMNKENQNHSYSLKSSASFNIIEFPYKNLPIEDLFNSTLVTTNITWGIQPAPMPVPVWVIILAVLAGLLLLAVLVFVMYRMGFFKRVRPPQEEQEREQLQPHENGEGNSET
The assay is described as follows: Binding to mouse Integrin αVβ3.

Assay [2] concerns the target T2, human αvβ3 (Homo sapiens, UniProt P05106).
T2 construct: endogenous in cells; host or cells: M21 melanoma, HMVEC, HUVEC
The assay is described as follows: 125-labeled Vitaxin binding affinities and number of binding sites on cell lines. Particulars: for Kd: read-out: Kp. An excerpt:
(§1) ^125-labeled Vitaxin® was used to determine binding affinities and number of binding sites for human, rabbit and hamster cell lines. The affinity of Vitaxin® for hamster αvβ3 was approximately 2-3 fold lower than human αvβ3 while its affinity for rabbit αvβ3 was about 4-10 fold lower than human αvβ3.

The test system of assay [3] is Rabbit αvβ3. The description is as above. The following applies: for Kd: read-out: Kp.
Excerpt: as §1

Where [4] appears, read: Human HUVEC primary endothelium.

T2 sequence (P05106 27-788): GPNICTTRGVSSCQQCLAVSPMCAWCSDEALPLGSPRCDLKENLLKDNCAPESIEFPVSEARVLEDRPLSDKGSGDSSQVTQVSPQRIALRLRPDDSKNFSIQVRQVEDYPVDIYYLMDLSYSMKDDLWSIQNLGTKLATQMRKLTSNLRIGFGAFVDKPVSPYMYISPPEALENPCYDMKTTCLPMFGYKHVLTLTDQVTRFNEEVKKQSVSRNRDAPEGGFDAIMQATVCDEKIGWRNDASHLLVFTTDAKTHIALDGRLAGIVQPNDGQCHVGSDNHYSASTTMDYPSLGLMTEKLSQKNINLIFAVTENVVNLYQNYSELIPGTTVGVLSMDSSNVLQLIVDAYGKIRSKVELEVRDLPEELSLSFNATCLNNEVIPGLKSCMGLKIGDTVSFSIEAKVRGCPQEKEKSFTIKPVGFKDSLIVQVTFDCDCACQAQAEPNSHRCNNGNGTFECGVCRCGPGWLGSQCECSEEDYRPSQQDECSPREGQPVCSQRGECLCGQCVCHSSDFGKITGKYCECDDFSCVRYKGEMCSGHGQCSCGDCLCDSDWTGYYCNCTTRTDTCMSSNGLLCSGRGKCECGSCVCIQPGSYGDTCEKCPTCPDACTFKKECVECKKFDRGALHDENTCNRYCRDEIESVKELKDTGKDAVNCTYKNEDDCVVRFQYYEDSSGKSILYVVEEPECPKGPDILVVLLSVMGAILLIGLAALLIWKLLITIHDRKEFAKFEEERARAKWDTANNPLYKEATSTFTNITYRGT
T2 sequence (P06756 31-889 partner limits assumed): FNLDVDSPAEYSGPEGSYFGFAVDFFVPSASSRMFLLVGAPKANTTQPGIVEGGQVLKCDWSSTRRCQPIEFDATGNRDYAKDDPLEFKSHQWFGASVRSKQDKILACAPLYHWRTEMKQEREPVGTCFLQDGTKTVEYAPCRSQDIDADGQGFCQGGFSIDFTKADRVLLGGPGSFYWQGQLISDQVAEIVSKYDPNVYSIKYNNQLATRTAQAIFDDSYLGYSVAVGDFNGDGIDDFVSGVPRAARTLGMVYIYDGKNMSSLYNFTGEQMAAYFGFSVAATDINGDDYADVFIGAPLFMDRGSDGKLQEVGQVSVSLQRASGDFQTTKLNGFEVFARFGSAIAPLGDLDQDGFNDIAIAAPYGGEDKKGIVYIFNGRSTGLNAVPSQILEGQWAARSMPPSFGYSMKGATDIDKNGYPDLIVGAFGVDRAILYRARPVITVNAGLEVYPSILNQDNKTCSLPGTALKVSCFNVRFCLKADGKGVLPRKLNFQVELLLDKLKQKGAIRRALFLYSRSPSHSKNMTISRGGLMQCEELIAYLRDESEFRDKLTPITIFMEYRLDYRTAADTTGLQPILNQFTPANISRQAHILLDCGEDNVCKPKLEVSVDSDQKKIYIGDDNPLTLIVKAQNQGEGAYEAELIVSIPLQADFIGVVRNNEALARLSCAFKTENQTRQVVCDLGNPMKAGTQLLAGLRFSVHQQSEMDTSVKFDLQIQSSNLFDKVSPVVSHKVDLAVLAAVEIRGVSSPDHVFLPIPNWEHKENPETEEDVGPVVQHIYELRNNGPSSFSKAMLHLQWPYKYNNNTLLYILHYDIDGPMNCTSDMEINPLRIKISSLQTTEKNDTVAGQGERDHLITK
T2 sequence (P06756 891-1048 partner limits assumed): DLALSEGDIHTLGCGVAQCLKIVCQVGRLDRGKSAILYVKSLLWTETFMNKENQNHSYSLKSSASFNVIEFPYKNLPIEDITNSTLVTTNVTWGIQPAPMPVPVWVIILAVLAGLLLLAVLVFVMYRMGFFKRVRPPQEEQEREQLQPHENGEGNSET

B1: Vitaxin®: humanized blocking monoclonal antibody that binds Integrin αVβ3 (MEDI-522, MedImmune); humanized and optimized version of LM609 (antibody, chains of the INN, looked up, V domains shown)
VH: QVQLVESGGGVVQPGRSLRLSCAASGFTFSSYDMSWVRQAPGKGLEWVAKVSSGGGSTYYLDTVQGRFTISRDNSKNTLYLQMNSLRAEDTAVYYCARHLHGSFASWGQGTTVTVSS
VL: EIVLTQSPATLSLSPGERATLSCQASQSISNFLHWYQQRPGQAPRLLIRYRSQSISGIPARFSGSGSGTDFTLTISSLEPEDFAVYYCQQSGSWPLTFGGGTKVEIK
Take B1: the “binding to mouse Integrin αVβ3” value in assay [1] is listed as “do not bind”. In addition, the results for the “Binding Sites” value in assay [2] (setting [4]) and in assay [2] (Human M21 melanoma) were 8.1 × 10^4 and 1.3 × 10^5, respectively. Further, the Kd in assay [2] (setting [4]) was found to be 3.3 nM; in assay [2] (Human M21 melanoma), 2.2 nM; in assay [3] (Rabbit RK1 kidney epithelium), 23 nM; in assay [3] (Rabbit VX7 carcinoma), 8.9 nM. The “affinity for rabbit αvβ3, fold lower than human αvβ3” value in assay [3] (rabbit vs human cell lines) is listed as 4-10 fold.
